From patent publication US20230212294A1 (MINGHUI PHARMACEUTICAL SHANGHAI, published 2023)
Residue numbers refer to the chain shown, from its start.

What was measured:
[1] = molecular target: T1, B7-H3 endogenously expressed on human tumor cell lines (human, UniProt Q5ZPR3 29-534); assay: flow cytometry on NCI-H322 cells
T1 construct: whole, on cells; The cell line is named in the assay or readout field of each row; also called NCI-H322 cells endogenously expressing B7-H3; B7-H3-positive human tumor cell lines NCI-H1975, BxPC-3, Calu-6
T1 sequence (looked up): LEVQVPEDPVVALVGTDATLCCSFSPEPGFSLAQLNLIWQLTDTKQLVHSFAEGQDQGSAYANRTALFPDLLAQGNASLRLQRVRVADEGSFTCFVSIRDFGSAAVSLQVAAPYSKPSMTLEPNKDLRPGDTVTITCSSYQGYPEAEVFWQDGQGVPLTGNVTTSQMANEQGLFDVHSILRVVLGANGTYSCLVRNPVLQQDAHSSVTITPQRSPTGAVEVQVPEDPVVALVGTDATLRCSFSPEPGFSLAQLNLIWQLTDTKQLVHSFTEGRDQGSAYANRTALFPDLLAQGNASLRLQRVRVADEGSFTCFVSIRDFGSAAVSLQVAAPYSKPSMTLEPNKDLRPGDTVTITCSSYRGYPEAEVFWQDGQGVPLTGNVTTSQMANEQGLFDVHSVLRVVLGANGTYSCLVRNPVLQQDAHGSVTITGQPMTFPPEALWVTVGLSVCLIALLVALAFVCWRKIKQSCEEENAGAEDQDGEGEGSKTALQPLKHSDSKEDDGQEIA
Method: (§1) CHOK cells overexpressing B7-H3 or NCI-H322 cells endogenously expressing B7-H3 were added to a round-bottom 96-well plate at 100,000 cells per well, centrifuged to remove the supernatant, and then added with a gradient-diluted anti-B7-H3 antibody and incubated at 4 degrees for 1 h. After incubation, the cells were washed twice with FACS buffer (PBS containing 2% FBS), then added with fluorescent-labeled goat anti-human secondary antibody (Abcam, ab98596) and incubated for 0.5 h. After incubation, the cells were washed twice with FACS buffer, then resuspended with FACS buffer and detected with flow cytometry (Beckman, cytoFlex).

[2] = molecular target: T2, B7-H3 on CHOK cells overexpressing B7-H3; assay: flow cytometry on CHOK cells overexpressing B7-H3
T2 construct: whole, on cells; also called CHO cells that artificially express B7-H3; B7-H3-expressing CHO cells
T2 sequence (Q5ZPR3 whole entry, species assumed, looked up): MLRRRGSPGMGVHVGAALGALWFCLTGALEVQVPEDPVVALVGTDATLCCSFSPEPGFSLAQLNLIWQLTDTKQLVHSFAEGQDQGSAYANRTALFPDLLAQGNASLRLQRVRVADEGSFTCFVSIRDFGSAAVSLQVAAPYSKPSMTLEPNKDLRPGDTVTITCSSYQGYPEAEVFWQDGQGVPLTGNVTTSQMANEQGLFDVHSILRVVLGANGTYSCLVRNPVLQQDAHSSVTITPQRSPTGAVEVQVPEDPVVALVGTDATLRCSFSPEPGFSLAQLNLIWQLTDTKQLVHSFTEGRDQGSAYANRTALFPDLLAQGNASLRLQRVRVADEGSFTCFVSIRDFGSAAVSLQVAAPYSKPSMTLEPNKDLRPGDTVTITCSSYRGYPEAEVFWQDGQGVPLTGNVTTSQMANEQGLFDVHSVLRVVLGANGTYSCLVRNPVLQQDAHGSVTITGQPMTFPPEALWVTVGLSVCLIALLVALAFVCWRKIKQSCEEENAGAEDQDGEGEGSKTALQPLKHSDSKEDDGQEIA
Method: as §1

[3] = molecular target: T2, B7-H3 on CHOK cells overexpressing B7-H3; assay: cell-based or functional assay
[4] = molecular target: T3, monkey B7-H3-his (monkey); assay: ELISA, antigen coated at 2 µg/mL
T3 chain: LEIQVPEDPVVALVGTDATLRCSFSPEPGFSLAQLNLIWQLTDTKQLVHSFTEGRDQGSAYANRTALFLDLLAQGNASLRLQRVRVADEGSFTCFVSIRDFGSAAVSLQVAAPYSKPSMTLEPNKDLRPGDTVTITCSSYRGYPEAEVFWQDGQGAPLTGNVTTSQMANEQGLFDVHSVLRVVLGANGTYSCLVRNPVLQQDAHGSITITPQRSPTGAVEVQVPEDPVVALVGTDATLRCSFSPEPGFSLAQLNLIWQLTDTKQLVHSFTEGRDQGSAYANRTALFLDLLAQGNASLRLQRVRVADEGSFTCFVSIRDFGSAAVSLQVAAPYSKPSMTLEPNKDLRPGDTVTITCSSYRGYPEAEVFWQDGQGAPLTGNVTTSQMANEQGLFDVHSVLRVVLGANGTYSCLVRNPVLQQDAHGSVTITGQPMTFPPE
Method: (§2) Human B7-H3-his, mouse B7-H3-his and monkey B7-H3-his were diluted to 2 μg/mL with PBS, and added to the ELISA plate at 30 μL per well. The ELISA plate was then incubated in a refrigerator at 4° C. for 16-20 hours. The next day, the ELISA plate was washed once with a lotion (PBS containing 0.05% Tween 20) and then blocked with 5% skim milk powder for 1 hour. After blocking, the ELISA plate was washed once, then added with gradient-diluted anti-B7-H3 antibodies, and incubated at room temperature for 1 h. After incubated, the ELISA plate was washed three times, then added with goat anti-human HRP-labeled secondary antibody, and incubated at room temperature for 1 h. After incubated, the ELISA plate was washed three times, then developed for 5-15 minutes by adding TMB, and finally terminated with 2M sulfuric acid. The data were recorded on the microplate reader.

[5] = molecular target: T4, mouse B7-H3-his (mouse, UniProt Q8VE98 29-244, limits assumed); assay: ELISA, antigen coated at 2 µg/mL
T4 construct: His-tagged recombinant protein coated on the ELISA plate; not shown: his tag
T4 sequence (looked up): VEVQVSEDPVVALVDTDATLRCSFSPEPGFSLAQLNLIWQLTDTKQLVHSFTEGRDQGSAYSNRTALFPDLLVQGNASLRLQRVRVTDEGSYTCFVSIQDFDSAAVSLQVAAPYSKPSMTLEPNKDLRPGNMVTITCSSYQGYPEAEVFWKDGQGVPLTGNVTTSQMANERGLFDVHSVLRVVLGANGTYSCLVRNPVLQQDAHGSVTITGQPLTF
Method: as §2

B1: IL-P5-C06-H2L3 (antibody, V domains shown)
VH: QVQLVQSGAEVKKPGASVKVSCKGSGYTFTDYAIHWGRQAPGQGLEWIGIINTYNGNSNYAQKFQGRATMTRDTSTSTAYMELSRLRSEDTAVYYCARNYGSSFNWYFDVWGQGTTVTVSS
VL: DIQLTQSPSSLSASVGDRVTITCRASSSISSNYLHWYQQKPGKAPKLLIYSTSNLASGVPSRFSGSGSGTDFTLTISSLQPEDFATYYCQQYSGYPLTFGQGTKLELK
notes: Humanized from IL-P5-C06; full-length antibody; also called ILP5C06huVH2 + ILP5C06huVL3
- EC50 [1]: 0.0618 µg/mL
- EC50 [2]: 0.826 µg/mL

B2: IL-P5-C06-H3L4 (antibody, V domains shown)
VH: B1 VH with G24A, I48M, A68V
VL: B1 VL with L4M, A56Q
notes: Humanized from IL-P5-C06; full-length antibody; also called ILP5C06huVH3 + ILP5C06huVL4
- EC50 [1]: 0.107 µg/mL
- EC50 [2]: 1.13 µg/mL

B3: IL-P5-C06-H2L2 (antibody, V domains shown)
VH: B1 VH
VL: B1 VL with V19I, L79V
notes: Humanized from IL-P5-C06; full-length antibody; also called ILP5C06huVH2 + ILP5C06huVL2
- EC50 [1]: 0.0919 µg/mL
- EC50 [2]: 1.12 µg/mL

B4: IL-P5-C06-H3L3 (antibody, V domains shown)
VH: B1 VH with G24A, I48M, A68V
VL: B1 VL
notes: Humanized from IL-P5-C06; full-length antibody; also called ILP5C06huVH3 + ILP5C06huVL3
- EC50 [1]: 0.137 µg/mL
- EC50 [2]: 1.18 µg/mL

B5: IL-P5-C06-H1L4 (antibody, V domains shown)
VH: B1 VH with G37A, R72V, T74K
VL: B1 VL with L4M, A56Q
notes: Humanized from IL-P5-C06; full-length antibody; also called ILP5C06huVH1 + ILP5C06huVL4
- EC50 [1]: 0.0436 µg/mL
- EC50 [2]: 0.596 µg/mL

B6: IL-P5-C06-H1L3 (antibody, V domains shown)
VH: B1 VH with G37A, R72V, T74K
VL: B1 VL
notes: Humanized from IL-P5-C06; full-length antibody; also called ILP5C06huVH1 + ILP5C06huVL3
- EC50 [1]: 0.0829 µg/mL
- EC50 [2]: 0.941 µg/mL

B7: IL-P5-C06-H1L1 (antibody, V domains shown)
VH: B1 VH with G37A, R72V, T74K
VL: B1 VL with L11M, V19I, A44S, F72Y, L79V
notes: Humanized from IL-P5-C06; full-length antibody; also called ILP5C06huVH1 + ILP5C06huVL1
- EC50 [1]: 0.0895 µg/mL
- EC50 [2]: 1.05 µg/mL

B8: IL-P5-C06-H2L4 (antibody, V domains shown)
VH: B1 VH
VL: B1 VL with L4M, A56Q
notes: Humanized from IL-P5-C06; full-length antibody; also called ILP5C06huVH2 + ILP5C06huVL4
- EC50 [1]: 0.0576 µg/mL
- EC50 [2]: 0.747 µg/mL

B9: NL24-A68 (antibody, V domains shown)
VH: QVQLVQSGAEVKKPGSSVKVSCKASGGTFSSYAISWVRQAPGQGLEWMGGIIPILGIANYAQKFQGRVTITADKSTSTAYMELSSLRAEDTAVYYCARGGSGRYLPDYWGQGTLVTVSA
VL: EIVLTQSPATLSLSPGERATLSCRASQSVSSYLAWYQQKPGQAPRLLIYDASNRATGIPARFSGSGSGTDFTLTISSLEPEDFAVYYCQQRSNWPPSLTFGGGTKVEIK
notes: Screened from the human source library; full-length antibody; also called NL24A68HC; NL24A68LC
- IC50 of CHO endocytosis experiment (toxin-labeled secondary antibody, cell viability) [3]: 0.0035 µg/mL
- EC50 [4]: 0.131 µg/mL
- EC50 [5]: 0.205 µg/mL
- EC50 [1]: 0.0484 µg/mL
